Target: GST-NSD2-SET (Homo sapiens, UniProt O96028 941-1240)
Experiment: EMSA

Sequence of GST-NSD2-SET (O96028 941-1240): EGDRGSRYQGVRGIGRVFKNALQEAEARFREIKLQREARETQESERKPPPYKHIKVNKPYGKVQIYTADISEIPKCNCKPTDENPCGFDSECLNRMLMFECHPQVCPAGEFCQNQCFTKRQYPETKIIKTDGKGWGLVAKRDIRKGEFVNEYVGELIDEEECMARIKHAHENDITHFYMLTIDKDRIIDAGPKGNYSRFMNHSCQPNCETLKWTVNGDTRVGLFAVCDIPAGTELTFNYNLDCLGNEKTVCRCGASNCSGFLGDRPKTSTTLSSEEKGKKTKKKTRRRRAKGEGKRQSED

B1: 41-bp dsDNA (dsDNA)
DNA 1: CTCTCTTTGAGGACACCAACCTGGCGGCCATCCACGCCAAG
DNA 2: CTTGGCGTGGATGGCCGCCAGGTTGGTGTCCTCAAAGAGAG
binding result: binds

From paper PMC2797197
